From US10836808B2, “Binding-triggered transcriptional switches and methods of use thereof” (The Regents of the University of California, priority 2015, dated 2020)

B1: soluble TRAIL: an inducer of apoptosis and a cancer therapeutic (protein, UniProt P50591 39-281, looked up)
extracellular domain: TNELKQMQDKYSKSGIACFLKEDDSYWDPNDEESMNSPCWQVKWQLRQLVRKMILRTSEETISTVQEKQQNISPLVRERGPQRVAAHITGTRGRSNTLSSPNSKNEKALGRKINSWESSRSGHSFLSNLHLRNGELVIHEKGFYYIYSQTYFRFQEEIKENTKNDKQMVQYIYKYTSYPDPILLMKSARNSCWSKDAEYGLYSIYQGGIFELKENDRIFVSVTNEHLIDMDHEASFFGAFLVG
modifications: extracellular domain
notes: an inducer of apoptosis and a cancer therapeutic

Assays:
gamma secretase = experiment: Chimeric Notch (anti-CD19 scFv/tTA) receiver cell GFP reporter with CD19 sender cells, with or without DAPT; type: cell-based, mouse; settings: 1 mM DAPT, in the presence of CD19 sender cells
Excerpt: DAPT is a gamma secretase inhibitor. The data are expressed as GFP^+“receiver” cells.

K562 cells = experiment: Sensitivity of cancer cell lines to recombinant TRAIL; type: cell-based; settings: 1 to 200 ng/mL, 24 hours
Procedure: (§1) The cells were then harvested and stained with the live/dead stain, SYTOX Blue (Thermo Scientific #S34857) and the fraction of dead cells was determined by flow cytometry on a BD LSR II.

[1] = system: HCT116 colon cancer cells; experiment: as above; type: cell-based; settings: 1 to 200 ng/mL, 24 hours
Procedure: as §1

| Molecule | GFP+ receiver cells (gamma secretase) | induction of apoptosis in cancer cell line (K562 cells) | induction of apoptosis in cancer cell line (K562 cells; listed as recombinant TRAIL) | killing of cancer cell line [1] | killing of cancer cell line ([1]; listed as recombinant TRAIL) |
| --- | --- | --- | --- | --- | --- |
| C[C@H](NC(=O)Cc1cc(F)cc(F)c1)C(=O)NC(C(=O)OC(C)(C)C)c1ccccc1 (some centres unmarked) [DAPT] | at control, untreated levels |  |  |  |  |
| B1 |  | does not induce apoptosis even at high doses | insensitive to TRAIL treatment | effective at killing | sensitive to low level TRAIL treatment |
